# In IntAct's records for PubMed 18854156:
# B1: Sporulation initiation inhibitor protein Soj (Bacillus subtilis), P37522 (parent)
# chain: MGKIIAITNQKGGVGKTTTSVNLGACLAYIGKRVLLVDIDPQGNATSGLGIEKADVEQCVYDILVDDADVIDIIKATTVENLDVIPATIQLAGAEIELVPTISREVRLKRALEAVKQNYDYIIIDCPPSLGLLTINALTASDSVVIPVQCEYYALEGLSQLLNTVRLVQKHLNTDLMIEGVLLTMLDARTNLGIQVIEEVKKYFRDKVYKTVIPRNVRLSEAPSHGKPIILYDPRSRGAEVYLDLAKEVAANG
# Variants of: B1
# Conditions: with dnaa_bacsu dnaA
row,Variant,effect of a mutation on the interaction
1,MGKIIAITNQKGGVGKTTTSVNLGACLAYIGKRVLLVDIAPQGNATSGLGIEKADVEQCVYDILVDDADVIDIIKATTVENLDVIPATIQLAGAEIELVPTISREVRLKRALEAVKQNYDYIIIDCPPSLGLLTINALTASDSVVIPVQCEYYALEGLSQLLNTVRLVQKHLNTDLMIEGVLLTMLDARTNLGIQVIEEVKKYFRDKVYKTVIPRNVRLSEAPSHGKPIILYDPRSRGAEVYLDLAKEVAANG [D40A],decreasing interaction

# Variants of: B1
# Conditions: with dnaa_bacsu dnaA
# Remark: another data set of the same source
row,Variant,effect of a mutation on the interaction
1,MGKIIAITNQKVGVGKTTTSVNLGACLAYIGKRVLLVDIDPQGNATSGLGIEKADVEQCVYDILVDDADVIDIIKATTVENLDVIPATIQLAGAEIELVPTISREVRLKRALEAVKQNYDYIIIDCPPSLGLLTINALTASDSVVIPVQCEYYALEGLSQLLNTVRLVQKHLNTDLMIEGVLLTMLDARTNLGIQVIEEVKKYFRDKVYKTVIPRNVRLSEAPSHGKPIILYDPRSRGAEVYLDLAKEVAANG [G12V],increasing interaction
2,MGKIIAITNQKGGVGATTTSVNLGACLAYIGKRVLLVDIDPQGNATSGLGIEKADVEQCVYDILVDDADVIDIIKATTVENLDVIPATIQLAGAEIELVPTISREVRLKRALEAVKQNYDYIIIDCPPSLGLLTINALTASDSVVIPVQCEYYALEGLSQLLNTVRLVQKHLNTDLMIEGVLLTMLDARTNLGIQVIEEVKKYFRDKVYKTVIPRNVRLSEAPSHGKPIILYDPRSRGAEVYLDLAKEVAANG [K16A],increasing interaction
